Experimental findings from IntAct's records for PubMed 10069336 are described below.

Test [1] has as its target ena_drome ena (UniProt Q8T4F7).
The target in test [2] is abl_drome Abl (UniProt P00522).
Chain of UniProt P00522 (P00522 whole entry): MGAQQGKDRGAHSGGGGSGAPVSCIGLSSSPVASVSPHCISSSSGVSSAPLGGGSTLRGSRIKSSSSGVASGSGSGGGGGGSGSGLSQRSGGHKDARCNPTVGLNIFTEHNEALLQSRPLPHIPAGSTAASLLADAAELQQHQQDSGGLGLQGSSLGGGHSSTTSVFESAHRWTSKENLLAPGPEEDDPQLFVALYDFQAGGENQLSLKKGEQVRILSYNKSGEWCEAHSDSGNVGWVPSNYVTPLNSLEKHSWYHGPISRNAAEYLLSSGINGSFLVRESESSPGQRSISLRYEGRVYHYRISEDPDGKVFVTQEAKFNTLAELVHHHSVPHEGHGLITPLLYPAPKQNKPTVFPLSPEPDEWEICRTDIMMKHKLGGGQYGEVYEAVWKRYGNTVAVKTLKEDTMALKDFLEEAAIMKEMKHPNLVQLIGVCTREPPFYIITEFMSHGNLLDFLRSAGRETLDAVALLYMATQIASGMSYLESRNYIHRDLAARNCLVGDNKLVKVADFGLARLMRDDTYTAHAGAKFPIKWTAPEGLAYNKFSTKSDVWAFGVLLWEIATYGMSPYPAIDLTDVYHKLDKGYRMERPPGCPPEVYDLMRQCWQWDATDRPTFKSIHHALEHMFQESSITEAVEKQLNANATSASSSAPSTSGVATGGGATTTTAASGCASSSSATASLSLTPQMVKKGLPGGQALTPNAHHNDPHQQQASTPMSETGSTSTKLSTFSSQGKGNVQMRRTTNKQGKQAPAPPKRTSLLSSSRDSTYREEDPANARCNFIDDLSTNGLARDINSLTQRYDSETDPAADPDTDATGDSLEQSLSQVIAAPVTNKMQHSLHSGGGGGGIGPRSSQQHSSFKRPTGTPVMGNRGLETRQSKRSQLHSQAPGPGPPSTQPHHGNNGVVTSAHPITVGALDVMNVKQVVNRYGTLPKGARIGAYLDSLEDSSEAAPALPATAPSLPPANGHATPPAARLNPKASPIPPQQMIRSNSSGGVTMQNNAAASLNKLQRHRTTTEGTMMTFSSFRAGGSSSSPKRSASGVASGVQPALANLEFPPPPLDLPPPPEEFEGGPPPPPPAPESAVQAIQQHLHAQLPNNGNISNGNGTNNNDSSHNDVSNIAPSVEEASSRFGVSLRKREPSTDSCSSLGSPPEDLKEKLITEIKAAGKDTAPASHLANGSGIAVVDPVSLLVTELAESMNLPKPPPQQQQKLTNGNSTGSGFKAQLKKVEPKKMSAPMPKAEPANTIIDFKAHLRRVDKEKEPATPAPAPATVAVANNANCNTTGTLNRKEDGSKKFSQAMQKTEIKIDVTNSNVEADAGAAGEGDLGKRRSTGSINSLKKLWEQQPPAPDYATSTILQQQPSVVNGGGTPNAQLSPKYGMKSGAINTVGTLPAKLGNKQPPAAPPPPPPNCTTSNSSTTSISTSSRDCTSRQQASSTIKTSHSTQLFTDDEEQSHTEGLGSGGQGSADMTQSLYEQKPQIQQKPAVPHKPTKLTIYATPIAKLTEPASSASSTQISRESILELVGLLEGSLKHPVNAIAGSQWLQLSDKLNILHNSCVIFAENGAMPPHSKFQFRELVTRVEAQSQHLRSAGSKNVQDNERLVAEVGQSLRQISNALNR

Chain of UniProt Q8T4F7 (Q8T4F7 whole entry): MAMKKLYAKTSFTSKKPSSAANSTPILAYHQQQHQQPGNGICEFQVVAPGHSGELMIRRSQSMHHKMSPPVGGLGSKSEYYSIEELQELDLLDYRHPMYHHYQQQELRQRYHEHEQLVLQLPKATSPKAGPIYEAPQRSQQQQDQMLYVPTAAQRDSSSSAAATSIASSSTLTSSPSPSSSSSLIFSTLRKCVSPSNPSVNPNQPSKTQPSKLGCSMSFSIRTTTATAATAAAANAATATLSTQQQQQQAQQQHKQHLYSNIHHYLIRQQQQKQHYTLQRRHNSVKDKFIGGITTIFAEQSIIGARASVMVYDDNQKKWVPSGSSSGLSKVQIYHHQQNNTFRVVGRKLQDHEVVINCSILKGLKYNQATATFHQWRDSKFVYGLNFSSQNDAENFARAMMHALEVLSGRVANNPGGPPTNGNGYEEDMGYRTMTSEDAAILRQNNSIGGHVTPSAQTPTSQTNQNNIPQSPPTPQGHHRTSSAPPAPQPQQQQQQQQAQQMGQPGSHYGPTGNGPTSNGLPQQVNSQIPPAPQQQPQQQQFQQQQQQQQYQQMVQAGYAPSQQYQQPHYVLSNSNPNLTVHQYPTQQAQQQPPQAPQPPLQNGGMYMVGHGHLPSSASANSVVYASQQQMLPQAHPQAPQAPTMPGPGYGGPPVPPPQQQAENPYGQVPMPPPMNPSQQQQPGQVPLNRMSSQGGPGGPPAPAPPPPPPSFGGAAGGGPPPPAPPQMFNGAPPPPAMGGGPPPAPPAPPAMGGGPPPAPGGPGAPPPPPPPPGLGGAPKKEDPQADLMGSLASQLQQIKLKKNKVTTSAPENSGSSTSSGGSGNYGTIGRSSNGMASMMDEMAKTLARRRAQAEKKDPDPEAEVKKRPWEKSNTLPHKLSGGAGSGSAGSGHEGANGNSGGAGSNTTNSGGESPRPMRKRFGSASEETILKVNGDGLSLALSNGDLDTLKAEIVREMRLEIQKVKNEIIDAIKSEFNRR

Take “Tyrosine-protein phosphatase Lar (Drosophila melanogaster (Fruit fly)), P16621 C1670S”: the “effect of a mutation on the interaction” value in test [1] and in test [2] was “decreasing interaction” each time.
